{"source": "patent US20040038398A1", "key": {"[1]": {"target": "CD2 antigen on human peripheral blood CD14+ myeloid cells / primary dendritic cells (and CD3+ T cells) (human) (UniProt P06729)", "sequence (P06729 25-351)": "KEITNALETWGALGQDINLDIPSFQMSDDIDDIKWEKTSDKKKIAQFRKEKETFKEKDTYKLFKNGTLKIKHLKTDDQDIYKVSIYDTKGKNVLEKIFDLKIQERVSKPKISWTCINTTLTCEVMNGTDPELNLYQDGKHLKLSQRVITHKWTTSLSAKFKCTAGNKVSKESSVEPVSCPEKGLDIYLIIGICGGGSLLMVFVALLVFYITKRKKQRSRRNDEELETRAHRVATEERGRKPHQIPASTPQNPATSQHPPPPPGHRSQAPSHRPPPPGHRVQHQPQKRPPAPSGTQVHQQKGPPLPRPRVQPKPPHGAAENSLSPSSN", "assay": "cell-based or functional assay"}, "[2]": {"target": "CD2 antigen on human peripheral blood CD14+ myeloid cells / primary dendritic cells (and CD3+ T cells) (human) (UniProt P06729)", "assay": "flow cytometry, staining of enriched human CD14+ myeloid cells"}, "[3]": {"target": "CD2 antigen on human peripheral blood CD14+ myeloid cells / primary dendritic cells (and CD3+ T cells) (human) (UniProt P06729)", "assay": "flow cytometry, anti-T113 staining after 30 min pre-incubation with anti-T112, 4 C, Mg++/Ca++-free medium"}}}
{"substance": "anti-T111 monoclonal antibody", "values": [{"measurement": "IL-1β release, monocyte-derived dendritic cells against primary dendritic cells", "setting": "[1]", "value": 75, "unit": "fold"}, {"measurement": "IL-12 release, monocyte-derived dendritic cells against primary dendritic cells", "setting": "[1]", "value": 100, "unit": "fold"}, {"measurement": "allogeneic naive CD4 T cell proliferation induced by antibody-pulsed primary dendritic cells ([3H]thymidine)", "setting": "[1]", "value": 2.5, "unit": "fold"}, {"measurement": "percent of CD14+ Mx on which CD2 was identified", "setting": "[2]", "value": 30, "unit": "%"}]}
{"substance": "CD58 expressed on transfected CHO cells (CHO-58) (from UniProt P19256 29-250) (ligand)", "values": [{"measurement": "IL-1β in DC/CHO-58 cocultures compared with DC/CHO-NEO", "setting": "[1]", "value": 2, "unit": "fold"}, {"measurement": "IL-12 in DC/CHO-58 cocultures compared with DC/CHO-NEO", "setting": "[1]", "value": 26, "unit": "fold"}, {"measurement": "level of HLA-DR on primary dendritic cells cocultured with CHO-58", "setting": "[1]", "value": "> 2.5", "unit": "fold"}]}
{"substance": "anti-T113 monoclonal antibody", "values": [{"measurement": "CD50 MFI of primary dendritic cells, after CD2 engagement", "setting": "[1]", "value": 90, "unit": "MFI"}, {"measurement": "CD50 MFI of primary dendritic cells, control", "setting": "[1]", "value": 148, "unit": "MFI"}, {"measurement": "HLA-DQ level on primary dendritic cells (anti-T113 added to anti-T112-enriched cells)", "setting": "[1]", "value": 9, "unit": "fold"}, {"measurement": "HLA-DR level on primary dendritic cells (anti-T113 added to anti-T112-enriched cells)", "setting": "[1]", "value": 2, "unit": "fold"}, {"measurement": "MFI of CD50^hi (so in the source) primary dendritic cells", "setting": "[1]", "value": 53, "unit": "%"}, {"measurement": "[Ca++]i in CD3+ T cells above baseline (anti-T112 and anti-T113 cross-linked with goat anti-mouse IgG)", "setting": "[1]", "value": 180, "unit": "%"}, {"measurement": "high expressing CD86 population of primary dendritic cells (anti-T112/3 pair)", "setting": "[1]", "value": 65, "unit": "%"}, {"measurement": "increase in [Ca++]i in CD14+ Mx (anti-T113 added after anti-T112)", "setting": "[1]", "value": 69, "unit": "%"}, {"measurement": "increase in [Ca++]i in CD14+ Mx above baseline (anti-T112 and anti-T113 cross-linked with goat anti-mouse IgG)", "setting": "[1]", "value": 95, "unit": "%"}, {"measurement": "level of CD40 on primary dendritic cells (anti-T112/3 pair)", "setting": "[1]", "value": 2, "unit": "fold"}, {"measurement": "level of CD54 on primary dendritic cells (baseline 14%)", "setting": "[1]", "value": 9, "unit": "fold"}, {"measurement": "level of CD80 on primary dendritic cells (anti-T112/3 pair)", "setting": "[1]", "value": 3, "unit": "fold"}, {"measurement": "levels of HLA-DR and HLA-DQ on primary dendritic cells (anti-T112/3 pair against control)", "setting": "[1]", "value": "2 to 3", "unit": "fold"}, {"measurement": "percent CD50^hi of primary dendritic cells, after CD2 engagement", "setting": "[1]", "value": 76, "unit": "%"}, {"measurement": "percent CD50^hi of primary dendritic cells, control", "setting": "[1]", "value": 96, "unit": "%"}, {"measurement": "percentage of CD50^hi (so in the source) of primary dendritic cells", "setting": "[1]", "value": 21, "unit": "%"}, {"measurement": "percent of CD14+ Mx that were CD2+", "setting": "[3]", "value": 20, "unit": "%"}]}
{"substance": "anti-T112 monoclonal antibody", "values": [{"measurement": "percent of CD14+ Mx on which CD2 was identified", "setting": "[2]", "value": 37, "unit": "%"}]}
